Measurements as given in US20180230213A1 (AVEO PHARMACEUTICALS, published 2018).

Experiments:
[1] = molecular target: T1, human Notch3 on the cell surface (human, UniProt Q9UM47 40-2321); assay: FACS on HCC2429 cells (human Notch3), 4 C, one site binding fit
T1 construct: whole, on cells; the cells carry the full length protein; also called cell surface human Notch3; hNotch3
Experimental: (§1) Binding to cell surface human Notch3 by the antibody 4F11 was measured at 4° C., using Fluorescence Activated Cell Sorting (FACS). CHO N3 (Flp-In-CHO cells (Invitrogen) stably transfected with human Notch3), HCC2429 cells, and RL-952 cells expressing human Notch3 were washed once with PBS containing calcium chloride and magnesium chloride (Invitrogen) and harvested using cell dissociation buffer (Invitrogen). Cells were washed a second time with PBS and resuspended in FACS buffer (PBS with 0.5% BSA (Sigma-Aldrich)) for a final cell concentration of 250,000 cells per well into a 96-well v-bottom plate. Purified antibodies were diluted in FACS buffer over a concentration range of 100 nM to 0.1 nM. Cells were then incubated at 4° C. with […] of antibody for one hour, washed with FACS buffer twice, and resuspended in […] of goat-anti mouse PE-conjugated antibody (Jackson Immuno Research). Cells were incubated at 4° C. for 30 minutes in the dark, washed once with FACS buffer, and then analyzed using a Beckman Coulter Cytomics FC 500 instrument. The geometric mean of the florescent intensity was then calculated for each antibody concentration. These values were then entered into Prism software (GraphPad, La Jolla, Calif.) and used to generate a binding curve by plotting geometric mean versus antibody concentration. […]

[2] = molecular target: T1, human Notch3 on the cell surface; assay: FACS on RL-952 cells (human Notch3), 4 C, one site binding fit
Experimental: as §1

Kd [1]: 2.58 nM
Kd [2]: 0.963 nM
B1: antibody 4F11 (murine monoclonal anti-human Notch3) (antibody, mouse IgG1, kappa, V domains shown)
VH: EVQLVESGGGLVKPGGSLKLSCAASGFAFSSYDMSWVRQTPEKRLEWVAYISRGGGSTYYPDTVKGRFTISRDNAKNTLYLQMSSLKSEDTAMYYCGRHATTAYWYFDVWGAGTTVTVSS
VL: DVVMTQTPLSLPVSLGDQASISCRSSQSLVHTNGNTYLHWYLQKPGQSPKLLIYKVSNRFSGVPDRFSGSGSGTDFTLKISRVEAEDLGVYFCSQSTHVPWTFGGGTKLEIKR
notes: Mouse IgG1 kappa purified from hybridoma; also called mu4F11; murine 4F11
